Consider two proteins from article PMC7299334, “Molecular basis of force-from-lipids gating in the mechanosensitive channel MscS” (eLife, 2019).

The data set concerns the molecule itself. The experiment in a line: cryo-EM structure; single particle cryo-EM of MscS in MSP1 E3D1 nanodiscs, POPC:POPG 4:1; 0.01% fluorinated octyl maltoside added; C7 symmetry in final refinement (the His-tagged sample also processed without symmetry, C1).

The term stoichiometry N denotes a count of units in the complex or per binding partner.

B1: E. coli small-conductance mechanosensitive channel MscS with N-terminal 6xHis tag (natural protein, UniProt P0C0S1 1-286, looked up)
chain: MEDLNVVDSINGAGSWLVANQALLLSYAVNIVAALAIIIVGLIIARMISNAVNRLMISRKIDATVADFLSALVRYGIIAFTLIAALGRVGVQTASVIAVLGAAGLAVGLALQGSLSNLAAGVLLVMFRPFRAGEYVDLGGVAGTVLSVQIFSTTMRTADGKIIVIPNGKIIAGNIINFSREPVRRNEFIIGVAYDSDIDQVKQILTNIIQSEDRILKDREMTVRLNELGASSINFVVRVWSNSGDLQNVYWDVLERIKREFDAAGISFPYPQMDVNFKRVKEDKAA
notes: Small-conductance mechanosensitive channel MscS, E. coli, full length; also called 6xHis-MscS-ND; MscS-ND; not shown: His6, N-terminal, kept
As to B1, the “stoichiometry N” value is 7.

B2: MscS-Cryst (Δ2–26 MscS) (natural protein, E. coli, UniProt P0C0S1 1-286, looked up)
chain: MYAVNIVAALAIIIVGLIIARMISNAVNRLMISRKIDATVADFLSALVRYGIIAFTLIAALGRVGVQTASVIAVLGAAGLAVGLALQGSLSNLAAGVLLVMFRPFRAGEYVDLGGVAGTVLSVQIFSTTMRTADGKIIVIPNGKIIAGNIINFSREPVRRNEFIIGVAYDSDIDQVKQILTNIIQSEDRILKDREMTVRLNELGASSINFVVRVWSNSGDLQNVYWDVLERIKREFDAAGISFPYPQMDVNFKRVKEDKAA
notes: Small-conductance mechanosensitive channel MscS, E. coli, lacking the N-terminal anchor domain (residues 2-26 removed); The tag is surmised from the vector and from the statement that the purification was the same; also called MscS ∆2–27; MscS ∆1–27; source: E. coli MJF465 (pQE70), purified as the wild type, reconstituted in MSP1 E3D1 nanodiscs (POPC:POPG)
Consider B2, for which the binding result is “binds”.
